Source: patent publication US20060105444A1, “O-fucosyltransferase” (Genentech, Inc., priority 1997, published 2006)

Molecular target: T1, purified O-fucosyltransferase (Cricetulus griseus, UniProt P83337)
T1 construct: endogenous in cells; host or cells: CHO cell paste (enzyme); E. coli periplasm (EGF substrates)
Assay: Acceptor substrate specificity: fucosyltransferase assay with Factor IX EGF domain mutants
Assay type: biochemical, CHO cells (Chinese hamster ovary)
Details: for Fucose (cpm): human Factor IX EGF domain or mutant as acceptor substrate, 14C-fucose incorporated; for acceptor substrate for the O-fucosyltransferase (in words): recombinant Factor IX EGF domains, assay counts and LC/MS of fucosylation product
Protocol: A reaction volume of 50 μl contained the following ingredient: 0.1 M imidazole-HCl, pH 7.0; 50 mM MnCl2; 0.1 mM GDP-^14C-Fucose (4000-8000 cpm/nmol), 20 μM recombinant human Factor VII EGF-1 domain and about 0.01-0.1 milliunit of enzyme activity. The mixture was incubated at 37° C. for 10-20 minutes. The reaction was stopped by placing the mixture on ice, then diluting with 950 μl of 0.25 M EDTA, pH 8.0. Separation of incorporated fucose from GDP-fucose, fucose-phosphate and free fucose was carried out by passing the solution through a C18 cartridge (Alltech, Extract Clean, C18, 200 mg). The cartridge was washed with 5 ml of H2O, and the product was then eluted with 3 ml of 80% acetonitrile containing 0.052% TFA. The eluant was mixed with 10 ml Aquasol II (NEN/Du Pont) and counted using a liquid scintillation counter.
As described previously, all the O-fucosylation on EGF domains occur within the putative consensus sequence CXXGGSC (SEQ ID NO: 1) or alternatively CXXGGTC (SEQ ID NO: 21). […] Three mutants were constructed using alanine to replace either of the two or both glycine residues and tested as acceptor substrate for the purified O-fucosyltransferase. Assays using the four recombinant EGF domains all gave positive counts. It appeared that the two glycine residues were not absolutely required for activity.
In order to determine if all the different forms of the mutants served as substrate for the O-fucosyltransferase, reverse-phase HPLC online with electrospray mass spectrometry was used to analyze the product of the fucosylation reaction. Shown in FIG. 8 is the experiment using the mutant ala-ala. Analysis of the other tested mutants gave similar results. […] The enzyme O-fucosyltransferase required its substrate in order to have the proper three dimensional structure in order to function properly.

Row | Fucose (cpm) | Substance | acceptor substrate for the O-fucosyltransferase (in words)
1 | 4585 | EGF.AG: Recombinant human Factor IX EGF domain mutant, sequence -CLNAGSC- (SEQ ID NO: 18) (KRYNSGKLEEFVQGNLERECMEEKCSFEEAREVFENTERTTEFHHHHHHGSA) | –
2 | 1818 | EGF.AA: Recombinant human Factor IX EGF domain mutant, sequence -CLNAASC- (SEQ ID NO: 17), both glycines replaced by alanine | only one of the four differently folded species served as an acceptor substrate
3 | 12062 | EGF (wild type): Recombinant human Factor IX EGF domain, wild type, sequence -CLNGGSC- (SEQ ID NO: 20) (KRYNSGKLEEFVQGNLERECMEEKCSFEEAREVFENTERTTEFHHHHHHGSA) | better substrate than the mutants
